Laboratory results taken from patent US20130115256A1, “METHODS FOR TREATING OR PREVENTING VASCULAR GRAFT FAILURE” (priority 2010, published 2013).
Where no end group is shown, it is not given here.

Molecular target: mitogen-activated protein kinase-activated protein kinase 2 (MK2), P49137
Experiment: cell-based or functional assay

Sequence of mitogen-activated protein kinase-activated protein kinase 2 (MK2), P49137 (P49137 46-400): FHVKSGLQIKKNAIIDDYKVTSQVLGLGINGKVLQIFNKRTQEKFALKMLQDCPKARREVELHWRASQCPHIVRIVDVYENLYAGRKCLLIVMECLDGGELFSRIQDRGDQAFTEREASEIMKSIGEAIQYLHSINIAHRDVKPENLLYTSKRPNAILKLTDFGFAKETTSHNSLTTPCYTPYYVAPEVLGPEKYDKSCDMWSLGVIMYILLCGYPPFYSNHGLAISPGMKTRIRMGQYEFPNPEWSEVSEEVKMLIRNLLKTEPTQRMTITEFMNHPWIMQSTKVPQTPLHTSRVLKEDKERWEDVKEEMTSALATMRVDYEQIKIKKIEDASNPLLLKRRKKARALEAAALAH

YARAAARQARAKALARQLGVAA (not fully specified (C-terminus)) [MMI-0100 (…; SEQ ID NO: 1)]
Percent Activity (radiometric kinase assay, peptide at 100 µM): < 5 % activity
